Measurements reported in US20220177846A1.

Columns and labels:
Assay in all cases: cell-based or functional assay
[1] = target: hNav1.5 (human) (UniProt Q14524)
[2] = target: hCav1.2 (human) (UniProt Q13936)
[3] = target: hKV11.1/hERG (human) (UniProt Q12809)
[4] = target: hKCNQ1/minK (human) (UniProt P51787)

Chain of hCav1.2 (human) (Q13936 whole entry): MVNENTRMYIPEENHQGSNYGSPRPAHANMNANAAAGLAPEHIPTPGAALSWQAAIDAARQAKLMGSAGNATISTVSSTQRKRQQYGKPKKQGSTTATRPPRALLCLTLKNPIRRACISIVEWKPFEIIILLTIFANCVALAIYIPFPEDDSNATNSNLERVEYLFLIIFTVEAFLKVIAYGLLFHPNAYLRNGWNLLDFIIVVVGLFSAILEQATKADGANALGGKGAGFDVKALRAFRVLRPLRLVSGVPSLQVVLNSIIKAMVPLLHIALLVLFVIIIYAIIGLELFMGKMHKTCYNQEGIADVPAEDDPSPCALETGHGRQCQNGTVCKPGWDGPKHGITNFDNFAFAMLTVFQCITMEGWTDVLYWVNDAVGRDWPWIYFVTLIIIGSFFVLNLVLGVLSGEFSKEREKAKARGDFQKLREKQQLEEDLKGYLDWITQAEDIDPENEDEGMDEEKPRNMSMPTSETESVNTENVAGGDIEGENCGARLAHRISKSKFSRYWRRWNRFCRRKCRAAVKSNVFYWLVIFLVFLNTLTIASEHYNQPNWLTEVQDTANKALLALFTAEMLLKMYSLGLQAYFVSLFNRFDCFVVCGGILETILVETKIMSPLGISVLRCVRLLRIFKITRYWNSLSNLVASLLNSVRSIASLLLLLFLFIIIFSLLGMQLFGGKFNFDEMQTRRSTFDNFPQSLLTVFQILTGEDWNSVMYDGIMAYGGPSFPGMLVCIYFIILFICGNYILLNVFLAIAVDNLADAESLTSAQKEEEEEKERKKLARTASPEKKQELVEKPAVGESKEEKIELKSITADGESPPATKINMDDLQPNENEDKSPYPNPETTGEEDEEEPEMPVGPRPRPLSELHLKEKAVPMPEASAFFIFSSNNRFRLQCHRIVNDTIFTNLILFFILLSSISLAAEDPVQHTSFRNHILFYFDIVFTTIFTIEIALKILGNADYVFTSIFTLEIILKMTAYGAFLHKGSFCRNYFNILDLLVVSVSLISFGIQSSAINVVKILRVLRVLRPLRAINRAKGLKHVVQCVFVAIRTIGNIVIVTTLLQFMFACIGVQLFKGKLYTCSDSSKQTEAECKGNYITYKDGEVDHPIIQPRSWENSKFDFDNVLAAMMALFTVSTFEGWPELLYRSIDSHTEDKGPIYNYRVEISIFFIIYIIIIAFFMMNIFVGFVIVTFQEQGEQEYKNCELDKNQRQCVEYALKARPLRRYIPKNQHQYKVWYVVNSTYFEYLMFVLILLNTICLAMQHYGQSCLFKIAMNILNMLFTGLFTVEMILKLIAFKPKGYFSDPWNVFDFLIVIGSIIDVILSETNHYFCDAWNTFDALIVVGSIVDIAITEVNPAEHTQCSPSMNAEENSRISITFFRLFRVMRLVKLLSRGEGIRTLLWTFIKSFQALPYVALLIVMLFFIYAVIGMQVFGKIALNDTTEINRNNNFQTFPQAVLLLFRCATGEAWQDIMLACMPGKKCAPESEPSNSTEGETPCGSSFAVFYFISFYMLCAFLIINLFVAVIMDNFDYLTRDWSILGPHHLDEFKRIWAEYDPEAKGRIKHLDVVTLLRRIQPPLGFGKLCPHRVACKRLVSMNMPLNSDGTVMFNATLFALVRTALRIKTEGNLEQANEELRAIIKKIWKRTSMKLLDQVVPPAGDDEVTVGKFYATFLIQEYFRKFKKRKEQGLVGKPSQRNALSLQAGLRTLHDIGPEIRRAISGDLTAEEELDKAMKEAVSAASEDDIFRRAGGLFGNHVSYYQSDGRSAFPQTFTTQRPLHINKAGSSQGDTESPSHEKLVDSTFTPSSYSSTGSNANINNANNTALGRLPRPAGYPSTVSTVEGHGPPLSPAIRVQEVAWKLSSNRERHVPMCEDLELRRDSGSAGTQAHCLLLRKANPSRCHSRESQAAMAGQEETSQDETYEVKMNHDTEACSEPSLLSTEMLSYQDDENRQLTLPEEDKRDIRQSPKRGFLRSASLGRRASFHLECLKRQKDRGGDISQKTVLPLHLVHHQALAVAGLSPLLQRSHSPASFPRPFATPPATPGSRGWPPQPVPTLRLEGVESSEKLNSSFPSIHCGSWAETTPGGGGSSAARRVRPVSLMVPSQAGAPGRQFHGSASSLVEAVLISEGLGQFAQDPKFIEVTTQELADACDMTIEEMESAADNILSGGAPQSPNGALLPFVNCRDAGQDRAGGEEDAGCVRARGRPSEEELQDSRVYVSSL
Chain of hNav1.5 (human) (Q14524 whole entry): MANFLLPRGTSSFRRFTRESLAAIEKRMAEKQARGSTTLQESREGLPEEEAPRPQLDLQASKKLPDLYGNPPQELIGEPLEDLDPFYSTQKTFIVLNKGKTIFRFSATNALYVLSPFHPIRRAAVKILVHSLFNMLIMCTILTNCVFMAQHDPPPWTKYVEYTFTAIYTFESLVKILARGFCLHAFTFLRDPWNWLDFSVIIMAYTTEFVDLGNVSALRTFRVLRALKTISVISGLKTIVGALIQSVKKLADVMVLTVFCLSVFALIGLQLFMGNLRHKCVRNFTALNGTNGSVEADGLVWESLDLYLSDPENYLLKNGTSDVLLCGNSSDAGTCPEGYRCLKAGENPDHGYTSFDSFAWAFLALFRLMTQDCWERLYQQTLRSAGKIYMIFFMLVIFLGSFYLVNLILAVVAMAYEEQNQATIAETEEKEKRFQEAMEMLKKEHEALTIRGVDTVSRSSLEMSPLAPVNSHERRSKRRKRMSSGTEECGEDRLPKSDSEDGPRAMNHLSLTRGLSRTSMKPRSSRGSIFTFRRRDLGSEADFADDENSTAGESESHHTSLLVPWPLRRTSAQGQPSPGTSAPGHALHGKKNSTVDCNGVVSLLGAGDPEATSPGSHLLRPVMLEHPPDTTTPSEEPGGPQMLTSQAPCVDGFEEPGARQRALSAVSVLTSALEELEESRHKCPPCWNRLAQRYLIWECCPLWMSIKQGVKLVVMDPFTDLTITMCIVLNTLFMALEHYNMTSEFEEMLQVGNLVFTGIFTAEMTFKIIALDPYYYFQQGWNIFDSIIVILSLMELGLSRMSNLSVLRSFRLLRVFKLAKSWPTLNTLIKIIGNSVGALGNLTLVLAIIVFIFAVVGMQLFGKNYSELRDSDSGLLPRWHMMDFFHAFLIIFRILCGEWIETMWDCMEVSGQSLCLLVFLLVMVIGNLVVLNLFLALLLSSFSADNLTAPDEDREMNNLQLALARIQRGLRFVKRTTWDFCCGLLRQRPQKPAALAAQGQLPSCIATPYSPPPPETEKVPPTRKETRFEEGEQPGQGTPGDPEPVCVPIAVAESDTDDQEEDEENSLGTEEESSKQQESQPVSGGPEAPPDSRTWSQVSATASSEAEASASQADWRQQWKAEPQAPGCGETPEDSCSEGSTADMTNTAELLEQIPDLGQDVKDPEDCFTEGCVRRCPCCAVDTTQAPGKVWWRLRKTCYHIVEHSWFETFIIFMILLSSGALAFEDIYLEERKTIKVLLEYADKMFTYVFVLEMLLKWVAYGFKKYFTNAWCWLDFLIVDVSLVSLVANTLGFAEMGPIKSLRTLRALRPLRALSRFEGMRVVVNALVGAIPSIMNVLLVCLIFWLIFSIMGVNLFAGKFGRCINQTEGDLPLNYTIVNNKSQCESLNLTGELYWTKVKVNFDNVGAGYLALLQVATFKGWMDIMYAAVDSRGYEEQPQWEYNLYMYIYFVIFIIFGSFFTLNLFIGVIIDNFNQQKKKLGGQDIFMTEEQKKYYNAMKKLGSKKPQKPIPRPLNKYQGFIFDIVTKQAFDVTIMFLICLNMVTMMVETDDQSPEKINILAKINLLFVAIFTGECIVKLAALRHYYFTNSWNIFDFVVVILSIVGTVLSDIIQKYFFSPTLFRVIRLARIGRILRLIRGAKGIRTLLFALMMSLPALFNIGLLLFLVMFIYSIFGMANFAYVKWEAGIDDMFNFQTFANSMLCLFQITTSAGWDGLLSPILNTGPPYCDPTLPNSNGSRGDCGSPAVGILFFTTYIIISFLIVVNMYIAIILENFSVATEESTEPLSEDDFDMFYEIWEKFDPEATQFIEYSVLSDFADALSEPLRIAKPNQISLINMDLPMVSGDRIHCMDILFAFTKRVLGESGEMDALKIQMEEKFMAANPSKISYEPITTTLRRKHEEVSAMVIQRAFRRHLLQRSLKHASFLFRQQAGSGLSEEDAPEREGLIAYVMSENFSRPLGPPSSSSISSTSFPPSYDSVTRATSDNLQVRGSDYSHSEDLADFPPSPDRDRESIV

Hi1a (recombinant, with non-native N-terminal serine) (peptide)
% inhibition of hNav1.5 current, mean, 1 µM Hi1a [1]: 8.46% | % inhibition of hNav1.5 current, n1, 1 µM Hi1a [1]: 7.31% | % inhibition of hNav1.5 current, n2, 1 µM Hi1a [1]: 11% | % inhibition of hNav1.5 current, n3, 1 µM Hi1a [1]: 7.1% | % inhibition, hNav1.5 Late current antagonist assay, mean, 1 µM Hi1a [1]: -12.4% | % inhibition, hNav1.5 Late current antagonist assay, n1, 1 µM Hi1a [1]: -9.74% | % inhibition, hNav1.5 Late current antagonist assay, n2, 1 µM Hi1a [1]: -13.9% | % inhibition, hNav1.5 Late current antagonist assay, n3, 1 µM Hi1a [1]: -13.4% | % inhibition of hCav1.2 current, mean, 1 µM Hi1a [2]: 8.98% | % inhibition of hCav1.2 current, n1, 1 µM Hi1a [2]: 2.79% | % inhibition of hCav1.2 current, n2, 1 µM Hi1a [2]: 13.2% | % inhibition of hCav1.2 current, n3, 1 µM Hi1a [2]: 10.9% | % inhibition of hERG current, mean, 1 µM Hi1a [3]: -6.2% | % inhibition of hERG current, n1, 1 µM Hi1a [3]: -7.5% | % inhibition of hERG current, n2, 1 µM Hi1a [3]: 1.58% | % inhibition of hERG current, n3, 1 µM Hi1a [3]: -12.7% | % inhibition of hKCNQ1/mink current, mean, 1 µM Hi1a [4]: 0.17% | % inhibition of hKCNQ1/mink current, n1, 1 µM Hi1a [4]: 1.87% | % inhibition of hKCNQ1/mink current, n2, 1 µM Hi1a [4]: -0.67% | % inhibition of hKCNQ1/mink current, n3, 1 µM Hi1a [4]: -0.68%
